Reference: PMC1665450, “Molecular modeling and characterization of Vibrio cholerae transcription regulator HlyU” (BMC Structural Biology, 2006)

Molecular target: the molecule itself
Assay: not stated; unpublished results (Saha & Chakrabarti); HlyU after cleavage of the N-terminal His6-tag

B1: Vibrio cholerae transcription regulator HlyU (natural protein)
chain: MPYLKGAPMNLQEMEKNSAKAVVLLKAMANERRLQILCMLLDNELSVGELSSRLELSQSALSQHLAWLRRDGLVNTRKEAQTVFYTLSSTEVKAMIELLHRLYCQANQ
notes: also called Vc-HlyU; not shown: His6, N-terminal, cleaved
In the case of B1, the “stoichiometry N” value is reported as 2.
